The numbers were not newly measured in paper PMC3037027, which cites them from elsewhere.

This data set addresses U2AF65 UHM (Homo sapiens) (UniProt P26368). Kind of data set: ITC. On the technique in general: Isothermal titration calorimetry measures the heat released or taken up as one component is titrated into another.
UniProt P26368, sequence (P26368 372-475, one chain of several): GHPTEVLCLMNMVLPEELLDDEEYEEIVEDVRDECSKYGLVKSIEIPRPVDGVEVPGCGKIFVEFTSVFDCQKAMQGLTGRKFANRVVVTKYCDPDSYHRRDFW

By Kd is commonly meant the constant that tells how readily two partners part at equilibrium. With SF1 1-255 (from UniProt Q15637), the dissociation constant (Kd) is 12 nM.
